Laboratory results reported in patent US20100216170A1.

Legend:
[1] = biological target: mutant membrane-bound TNFα on stably transfected CHO cells (B-220 cells) (UniProt P01375); test: FACS, beads with CHO-TNFα (B220), sample 2
[2] = biological target: mutant membrane-bound TNFα on stably transfected CHO cells (B-220 cells) (UniProt P01375); test: FACS, gate P4 (CHO cells with anti-CD19 beads), FIG. 4
[3] = biological target: mutant membrane-bound TNFα on stably transfected CHO cells (B-220 cells) (UniProt P01375); test: FACS, gate P4 (CHO cells with anti-CD19 beads), middle panel of FIG. 3

Sequence of UniProt P01375 (P01375 whole entry, change not shown): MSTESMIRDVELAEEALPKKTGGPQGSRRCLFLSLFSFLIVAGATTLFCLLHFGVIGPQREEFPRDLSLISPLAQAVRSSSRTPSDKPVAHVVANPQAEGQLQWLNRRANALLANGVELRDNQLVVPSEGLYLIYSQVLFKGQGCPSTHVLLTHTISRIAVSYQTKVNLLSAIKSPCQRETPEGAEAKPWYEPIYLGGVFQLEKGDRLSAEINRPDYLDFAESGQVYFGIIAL

- % bound beads [1]: 0.9%
- #Events [2]: 2 events
- % Parent [2]: 0%
- % Total [2]: 0%
- #Events [3]: 6 events
- % Parent [3]: 0.1%
- % Total [3]: 0.1%
Substance: APC-labeled unrelated antibody (anti-CD19) coated on beads
